Data reported in the DeepSol protein solubility set.

assay: soluble on expression in E. coli; label from the status in PepcDB or PDB records

| Sequence | soluble on expression in E. coli |
| --- | --- |
| SVICCAAVNCSNRQGKGEKRAVSFHRFPLKDSKRLIQWLKAVQRDNWTPTKYSFLCSEHFTKDSFSKRLEDQHRLLKPTAVPSIFHLTEKKRGAGGHGRTRRKDASKATGGVRGHSSAATGRGAAGWSPSSSGNPMAKPESRRLKQAALQGEATPRAAQEAASQEQAQQALERTPGDGLATMVAGSQGKAEASATDAGDESATSSIEGGVTDKSGISMDDFTPPGSGACKFIGSLHSYSFSSKHTRERPSVPREPIDRKRLKKDVEPSCSGSSLGPDKGLAQSPPSSSLTATPQKPSQSPSAPPADVTPKPATEAVQSEHSDASPMSINEVILSASGACKLIDSLHSYCFSSRQNKSQVCCLREQVEKKNGELKSLRQRVSRSDSQVRKLQEKLDELRRVSVPYPSSLLSPSREPPKMNPVVEPLSWMLGTWLSDPPGAGTYPTLQPFQYLEEVHISHVGQPMLNFSFNSFHPDTRKPMHRECGFIRLKPDTNKVAFVSAQNTGVVEVEEGEVNGQELCIASHSIARISFAKEPHVEQITRKFRLNSEGKLEQTVSMATTTQPMTQHLHVTYKKVTP | soluble |
| SVKETENLLQTGISEVRGTLKISAPRDIGKQIISPMVSAFSEQYPDVTPYLYLNDNLSNLAESGLDLVIRYGELADSNLISRRLASSQRVLCASPDYLSKQGVPNCPQDLAAHRCLAMVRSNEELKTWHFKDEESHQSITVTPKRFSDDGEVIRQWALDGAGIALKSILDIQQDLKQQRLVTVLDGYMKNFSAFSQGAEADLHVIYQSRQYQPKRVRLFLDFLVEQFSALSDTSNQI | not soluble |
| SVLPETPVPFKSGTGAIDNDTVYIGLGSAGTAWYKLDTQAKDKKWTALAAFPGGPRDQATSAFIDGNLYVFGGIGKNSEGLTQVFNDVHKYNPKTNSWVKLMSHAPMGMAGHVTFVHNGKAYVTGGVNQNIFNGYFEDLNEAGKDSTAIDKINAHYFDKKAEDYFFNKFLLSFDPSTQQWSYAGESPWYGTAGAAVVNKGDKTWLINGEAKPGLRTDAVFELDFTGNNLKWNKLAPVSSPDGVAGGFAGISNDSLIFAGGAGFKGSRENYQNGKNYAHEGLKKSYSTDIHLWHNGKWDKSGELSQGRAYGVSLPWNNSLLIIGGETAGGKAVTDSVLITVKDNKVTVQNLEHHHHHH | soluble |
| SYFSIFSPSFTSLRHDGKPVQCSGLDMQFDPSEPGFYDDPDLSYSIEKPITKWDEKRNQWFESHPSFKPGSENRIVMVTGSQSSPCKNPIGDHLLLRCFKNKVDYARIHGHDIFYSNSLLHPKMNSYWAKLPVVKAAMLAHPEAEWIWWVDSDAIFTDMEFKPPLHRYRQHNLVVHGWPNIIYEKQSWTALNAGVFLIRNCQWSMDLIDTWKSMGPVSPDYKKWGPIQRSIFKDKLFPESDDQTALIYLLYKHKELYYPKIYLEAEYYLQGYWIGVFGDFANVTERYLEMEREDDTLRRRHAEKVSERYGAFREERFLKGEFGGRGSRRRAFITHFTGCQPCSGDHNPSYDGDTCWNEMTRALNFADNQVMRVYGYVHSDLSKTSPLQPLPFDYPNEAW | soluble |
| SYRSRSAFKLLEVNERHQILRPGLRVLDCGAAPGAWSQVAVQKVNAAGTDPSSPVGFVLGVDLLHIFPLEGATFLCPADVTDPRTSQRILEVLPGRRADVILSDMAPNATGFRDLDHDRLISLCLTLLSVTPDILQPGGTFLCKTWAGSQSRRLQRRLTEEFQNVRIIKPEASRKESSEVYFLATQYHGRKGTVKQ | soluble |
| TALADVVITGYQTLSKERATGSFDKVDSSVLSSRPTADLSTALQGLVAGMQATEKEDGSIDFLIRGSSSLYADKKPLLVVDGFPIQGDFSSINPNDVESVTVLKDAAAASIWGARSANGVIVVTTKKGKKDK | not soluble |
| TAMRALIESLPTITEGEGRFVPYNDDEGGEEENVCTTEHVEMAKAKNWKVLTSWGEPFPGITALISIEGESEYSVYAQDGILYLSGMEQGLPVQ | not soluble |
| TDPDADRLGVEIRQPDGSYLNLSGNQIGAIIAKYILEAHKTAGTLPANAALCKSIVSTELVTKIAESYGATMFNVLTGFKFIGEKIHEFETQHNYTYMFGFEESFGYLIKPFVRDKDAIQAVLIVAEIAAYYRSRGMTLADGIEEIYKQYGYFSE | not soluble |
| TEELEKAYDSLKESEEHLRLTLEGSKAGMWMWDLRANWKITPQMNALLGRSESSPIKYEEFISMIHPEDQERVAQAWNKAIECKDFYDQEYRIFLPDGSIHWLSSKGSVIELHSGIRQLMGITTDIT | not soluble |
| TKAHRDAARRIAAESFVLLKNDNVTLRPGTPAEPLLPFNPKGNIAVIGPLADSRTNMPGTWSVAAVLDRCPSLVEGLKEMTAGKANILYAKGSNLISDASYEERATMFGRSLNRDNRTDEQLLNEALTVANQSDIIIAALGESSEMSGESSSRTDLNIPDVQQNLLKELLKTGKPVVLVLFTGRPLTLTWEQEHVPAILNVWFGGSEAAYAIGDALFGYVNPGGKLTMSFPKNVGQIPLYYAHKNTGRPLAQGKWFEKFRSNYLDVDNEPLYPFGYGLSYTTFSYGDIDLSR | not soluble |
| TKDFSWNTTFNISHNKNEIVTLDGMQTEIISGTQIRKVGKSYRTFYMIEFAGINPETGAPQFYTNDLDENGNYIKEITEKYSEANAIVLDKHAEPNVIGGLSNTLRYKWFDLNFMFSYQFGGYSYDNWAQKTEHGGNDLEANIPTYYRDSWKQPGDITKYELFIESPDVAMNKSTTTRRLHSSDFIRLKTLTFGITLPQVWTQKIGVNNVRVYASANNLWTWAAYDYYDPEAVSGGSAIWGTPPLKTVTFGLSVNF | not soluble |
| TMIAIKPTKLKDFSSLMQLDVQEEQIGFAKPFEQAYQKRNKSEVFFTIYSDYLTVGYLIIDKGFAQHAPFAMRHELGLNYLMIDRRFQRQGIGAEALKKLFVYAYTIDPESTSLCVTVPNSHQGALDFFLACGFTNTEKAIYGEQEKEWLMRHPL | not soluble |
| TNRVADLTIYIIRQGVLDRRYLGEIERLYTENKFTNMCLVLNDVSYSGSRGTYGYGYGYGYGNKEYGKQGKKLRRRSAKKTKKFKIGPMKKS | not soluble |
| TPAAPISTVADGDWPAYGRNQEGQRFSPLKQINADNVKNLKEAWVFRTGDLKQPNDPGEITNEVTPIKVGDTLFLCTAHQRLFALDAATGKEKWHFDPQLNADPSFQHVTCRGVSYHEAKADNAPADVVADCPRRIILPVNDGRLFAVNADNGKLCETFANKGILNLQTNMPVTTPGMYEPTSPPIITDKTIVIAGAVTDNFSTREPSGVIRGFDVNTGKLLWAFDPGAKDPNAIPSDEHHFTLNSPNSWAPAAYDAKLDLVYLPMGVTTPDIWGGNRTPEQERYASSIVALNATTGKLAWSYQTVHHDLWDMDMPSQPTLADIEVNGKTVPVIYAPAKTGNIFVLDRRNGELVVPAPEKPVPQGAAKGDYVTKTQPFSDLSFRPKKDLTGADMWGATMFDQLVCRVIFHQLRYEGIFTPPSEQGTLVFPGNLGMFEWGGISVDPNRQVAIANPMALPFVSKLIPRGPGNPMEPPKDAKGSGTESGVQPQYGVPYGVTLNPFLSPFGLPCKQPAWGYISALDLKTNEVVWKKRIGTPQDSLPFPMPVKLPFTMGMPMLGGPISTAGNVLFIGATADNYLRAYNMSNGEKLWEARLPAGGQATPMTYEVNGKQYVVISAGGHGSFGTKMGDYIVAYALPDDAK | not soluble |
| TPDIQMTQSPSSLSASVGDRVTITVQASQDIIKHLNWYQQTPGKAPKLLIYEASNLQAGVPSRFSGSGSGTDYTFTISSLQPEDIATYYCQQYQSLPYTFGQGTKLQIT | soluble |
| TQETFPPKYLHYDEETSHQLLCDKCPPGTYLKQHCTAKWKTVCAPCPDHYYTDSWHTSDECLYCSPVCKELQYVKQECNRTHNRVCECKEGRYLEIEFCLKHRSCPPGFGVVQAGTPERNTVCKRCPDGFFSNETSSKAPCRKHTNCSVFGLLLTQKGNATHDNICSGNSESTQKCGIDVTLCEEAFFRFAVPTKFTPNWLSVLVDNLPGTKVNAESVERIKRQHSSQEQTFQLLKLWKHQNKDQDIVKKIIQDIDLCENSVQRHIGHANLTFEQLRSLMESLPGKKVGAEDIEKTIKACKPSDQILKLLSLWRIKNGDQDTLKGLMHALKHSKTYHFPKTVTQSLKKTIRFLHSFTMYKLYQKLFLEMIGNQVQSVKISCL | not soluble |
| TRFVPGGPVERMLSQMQSQGDGAASMTSAGGNTALSDEQIAELNAFYGLDKPVMEAYVDWLSRLVTLDLGESTRYYEPVSDMIAERLP | not soluble |
| TSKFQWTSDFNIGFNRNRVTELYGGKPELKGLKRLEEGRDMDEWYLREWAGVDPANGSPLWYTTDENGKRTTTDSYNKADRVYCGSAAPKFTGGWMNSFSYKGFTLTANFDFVYGNLLYNQSRELLDSDGAYADYNSMKLKSGWKRWEKEGDIATHPKAINGGNKNSNKSSSRYLEKGNYFSLRNLSLGYSIPEKLCGKLGLQRVNVSCSADNLFTLTPFSGVSPQLSDSSTDGYAGTIYPLSRRIVFGLNVSF | not soluble |
| TSPTTTSTGTGTGSSTDQAISPLVEGENAPEVTTAKLGFIALTDAAPLIIAKEKGFYAKYGMPDVEVLKQASWGTTRDNLVLGSASGGIDGAHILTPMPYLITMGTVTDGKPTPMYILARLNVNGQGIQLGNNYKDLKVGTDAAPLKEAFAKVTDPKVAMTFPGGTHDMWIRYWLAAGGMEPGKDFSTIVVPPAQMVANVKVNAMESFCVGEPWPLQTVNQGVGYQALTTGQLWKDHPEKAFGMRADWVDQNPKAAKALLMAVMEAQQWCDQAENKEEMCQILSKREWFKVPFEDIIDRSKGIYNFGNGQETFEDQEIMQKYWVDNASYPYKSHDQWFLTENIRWGYLPASTDTKAIVDKVNREDLWREAAQALEVPADQIPSSPSRGIETFFDGITFDPENPQAYLDSLKIKSIKA | soluble |
| TTGSDGKATFDVTQNETYGLATPLTATLMRDTTKSATMDVIFTVITSPNSPKAKYWGHMPDTFTSRAGVTFKRPLLAAEATLGSSVSNNNESWSYLFYTNKVTPDCPVEYQPRLNELQGLYNDHPGGTILTDLGLPITAGSGNWWTYEMSTTDALTWYYGVINLKTGQSTTTINGYALMLCL | not soluble |
| TTVNETTPIAPAKVLPDAQTVTSVRHWTDTLFSFRVTRPQTLRFRSGEFVMIGLLDDNGKPIMRAYSIASPAWDEELEFYSIKVPDGPLTSRLQHIKVGEQIILRPKPVGTLVIDALLPGKRLWFLATGTGIAPFASLMREPEAYEKFDEVIMMHACRTVAELEYGRQLVEALQEDPLIGELVEGKLKYYPTTTREEFHHMGRITDNLASGKVFEDLGIAPMNPETDRAMVCGSLAFNVDVMKVLESYGLREGANSEPREFVVEKAFVGEGI | soluble |
| TVEDSESDMDDAKLDALMGNEGEEEEDDLAEIDTSNIITSGRRTRGKVIDYKKTAEELDKKE | soluble |
| TVPDFSAFAVEVPALKSNDEAIDAQIDKLRERFGELKDTKRKLKTDDFAIIDIEAAIDGEKLEEATTEGMSYQVGAGDLIDGLDTALRGLKAGESAEFTTTLKAGEHEGKEAAVTVTVQQTKERKLPELDEEFVQTASEFDTVEELRESIAEQVAEQAKAEQATAIRDEVLKAALAEATFELPEGVVEDQIHAQLHQLLNQVGGDEAALNAALEAQGTSREQFDADNRKNSEEAVRTQLFLDALAEQEQPEVSQQELTDHILFTAQSYGMDPNQFITQLQQSGQIGNLFSDVRRGKALAAAICRVSVKDDEGKAVDPSEYFGEEEESAEESE | not soluble |
| TVPITSAKAAELPPGNYRLVVFELENFQGRRAEFSGECSNLADRGFDRVRSIIVSAGPWVAFEQSNFRGEMFILEKGEYPRWNTWSSSYRSDRLMSFRPIKMDAQEHKISLFEGANFKGNTIEIQGDDAPSLWVYGFSDRVGSVKVSSGTWVGYQYPGYRGYQYLLEPGDFRHWNEWGAFQPQMQSLRRLRDKQWHLEGSFPVLATEPPK | soluble |
